Experimental data from article PMC5411712.

T1: SRF (rSRF) (UniProt P11831 1-508)
T1 sequence: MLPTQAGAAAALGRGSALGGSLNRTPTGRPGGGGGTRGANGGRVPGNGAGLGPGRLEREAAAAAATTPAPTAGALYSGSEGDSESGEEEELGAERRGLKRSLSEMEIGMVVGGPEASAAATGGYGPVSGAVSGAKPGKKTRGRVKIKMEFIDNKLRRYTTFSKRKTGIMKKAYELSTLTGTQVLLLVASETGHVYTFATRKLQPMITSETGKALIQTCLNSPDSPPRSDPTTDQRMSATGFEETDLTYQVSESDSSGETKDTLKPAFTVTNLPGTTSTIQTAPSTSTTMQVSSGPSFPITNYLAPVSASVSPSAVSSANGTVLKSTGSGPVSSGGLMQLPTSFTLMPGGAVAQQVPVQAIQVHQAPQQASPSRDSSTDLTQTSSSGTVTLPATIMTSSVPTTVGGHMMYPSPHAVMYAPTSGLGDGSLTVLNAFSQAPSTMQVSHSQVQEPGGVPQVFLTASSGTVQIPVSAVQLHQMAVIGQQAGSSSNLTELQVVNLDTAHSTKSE


Tests used:
SRF (rSRF) [1] = biological target: T1, SRF (rSRF); assay: EMSA; 10 mM Tris pH 8.0, 1 mM EDTA, 8% glycerol, 10 ul, ~150 ng fluorescein-labelled DNA, 1 h at room temperature; 4-20% Tris-glycine native gel, pH 8.3
SRF (rSRF);PTEN (rPTEN) [2] = biological target: T2, SRF (rSRF);PTEN (rPTEN) (;, UniProt P11831;P60484 1-508;1-403, |); assay: EMSA; lower mobility complex on adding rPTEN; 10 mM Tris pH 8.0, 1 mM EDTA, 8% glycerol, 10 ul, ~150 ng fluorescein-labelled DNA, 1 h at room temperature; 4-20% Tris-glycine native gel, pH 8.3
SRF (rSRF) [3] = biological target: T1, SRF (rSRF); assay: EMSA; two bands at 1 ul rSRF; single lower mobility band at saturating 3 ul; 10 mM Tris pH 8.0, 1 mM EDTA, 8% glycerol, 10 ul, ~150 ng fluorescein-labelled DNA, 1 h at room temperature; 4-20% Tris-glycine native gel, pH 8.3
PTEN (rPTEN) = PTEN (rPTEN) (UniProt P60484 1-403); assay: EMSA; rPTEN alone; 10 mM Tris pH 8.0, 1 mM EDTA, 8% glycerol, 10 ul, ~150 ng fluorescein-labelled DNA, 1 h at room temperature; 4-20% Tris-glycine native gel, pH 8.3
SRF (rSRF);PTEN (rPTEN) [4] = biological target: T2, SRF (rSRF);PTEN (rPTEN); assay: EMSA, supershift and western blot of EMSA; higher mobility complex than rSRF alone; supershifted by PTEN or SRF antibody; 10 mM Tris pH 8.0, 1 mM EDTA, 8% glycerol, 10 ul, ~150 ng fluorescein-labelled DNA, 1 h at room temperature; 4-20% Tris-glycine native gel, pH 8.3

| Binder | binding result (SRF (rSRF) [1]) | binding result (SRF (rSRF);PTEN (rPTEN) [2]) | binding result (SRF (rSRF) [3]) | binding result (PTEN (rPTEN)) | binding result (SRF (rSRF);PTEN (rPTEN) [4]) |
| --- | --- | --- | --- | --- | --- |
| CArG B 20-bp probe (Acta2) (dsDNA) DNA 1: GAGGTCCCTATATGGTTGTG DNA 2: CACAACCATATAGGGACCTC | binds | binds |  |  |  |
| CArG A+B 95-bp probe (Acta2) (dsDNA) DNA 1: AATTCTGGGGTGTATCTTGCCCTATATGGGATATCGCTCTGACCGTTAACTAGGACTAGCTGAGGGTAGCCTTGTTTGGCTGCATCTGTTTCTTTTCGGCTAGC DNA 2: GCTAGCCGAAAAGAAACAGATGCAGCCAAACAAGGCTACCCTCAGCTAGTCCTAGTTAACGGTCAGAGCGATATCCCATATAGGGCAAGATACACCCCAGAATT |  |  | binds | no binding | binds |
